Source: EP4768503A1

Target: amyloid precursor protein (APP) on HEK293-APP stable transfected cells (UniProt P05067)
Experiment: flow cytometry on HEK293-APP cells, four-parameter fit of MFI

amyloid precursor protein (APP) on HEK293-APP stable transfected cells, sequence (P05067 18-770): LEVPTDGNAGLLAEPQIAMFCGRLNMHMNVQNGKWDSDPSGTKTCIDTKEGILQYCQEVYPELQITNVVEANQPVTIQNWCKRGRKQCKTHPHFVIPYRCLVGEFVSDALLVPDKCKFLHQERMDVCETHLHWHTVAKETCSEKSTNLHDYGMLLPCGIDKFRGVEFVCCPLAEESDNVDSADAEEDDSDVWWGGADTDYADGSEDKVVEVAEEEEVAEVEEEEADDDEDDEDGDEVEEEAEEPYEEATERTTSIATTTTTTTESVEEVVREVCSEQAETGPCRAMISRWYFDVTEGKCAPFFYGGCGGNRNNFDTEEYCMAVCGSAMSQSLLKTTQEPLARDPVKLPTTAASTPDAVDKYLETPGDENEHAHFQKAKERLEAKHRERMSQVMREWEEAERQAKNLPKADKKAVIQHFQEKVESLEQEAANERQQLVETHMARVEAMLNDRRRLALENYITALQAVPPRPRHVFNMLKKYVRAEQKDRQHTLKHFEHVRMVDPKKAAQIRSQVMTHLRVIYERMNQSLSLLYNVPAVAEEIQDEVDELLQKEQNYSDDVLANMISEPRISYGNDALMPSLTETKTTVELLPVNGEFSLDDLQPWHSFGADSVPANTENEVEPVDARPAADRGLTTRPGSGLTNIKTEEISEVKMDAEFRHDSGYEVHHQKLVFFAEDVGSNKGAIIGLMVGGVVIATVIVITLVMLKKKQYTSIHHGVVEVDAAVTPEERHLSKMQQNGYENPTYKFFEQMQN

EC50: 6.83 nM
Substance: Lecanemab (antibody)
